Data as given in publication PMC9834252 (Nature Communications, 2023).

Target: T1, M1-linked di-Ub (UniProt P0CG48 1-76; P0CG48 1-76)
T1 construct: ubiquitin, distal protomer (its C-terminus joined to M1 of the next); ubiquitin, proximal protomer (free C-terminus); also called M1 di-Ub; linear di-Ub; source: E. coli, purified (acid precipitation, cation exchange, SEC)
Assay: ITC; M1-linked di-Ub and HOIL-1 (WT or I358R), direct binding; who was titrated and the concentrations are not told; 25 °C, 10 mM HEPES pH 7.9, 100 mM NaCl
Conditions: both partners purified

B1: HOIL-1 helix-RBR (WT) (domain or fragment, human, UniProt Q9BYM8 233-510, looked up)
chain: DEEERARLAGEEEALRQYQQRKQQQQEGNYLQHVQLDQRSLVLNTEPAECPVCYSVLAPGEAVVLRECLHTFCRECLQGTIRNSQEAEVSCPFIDNTYSCSGKLLEREIKALLTPEDYQRFLDLGISIAENRSAFSYHCKTPDCKGWCFFEDDVNEFTCPVCFHVNCLLCKAIHEQMNCKEYQEDLALRAQNDVAARQTTEMLKVMLQQGEAMRCPQCQIVVQKKDGCDWIRCTVCHTEICWVTKGPRWGPGGPGDTSGGCRCRVNGIPCHPSCQNCH
notes: HOIL-1, human, residues 233-510 (N-terminal helix and RBR module); also called WT HOIL-1; HOIL-1 233-510 (helix-RBR); source: E. coli BL21(DE3), purified (Ni-NTA, SEC)
B1 gave a Kd of ~50 µM.
